According to patent US20190375786A1, “STABLE PEPTIDES AND METHODS OF USE THEREOF” (Fred Hutchinson Cancer Research Center, priority 2016, published 2019):

Columns and labels:
[1] = Resistance to elevated temperature, HPLC; type: physicochemical; settings: HPLC peak vs untreated peptide; for Resistance to Temperature (75° C.): 75° C. for one hour; for Resistance to Temperature (100° C.): 100° C. for one hour
Method: (§1) Peptides were first suspended in 500 μl of ddH2O to a stock concentration of 2 mg/ml. Reactions were prepared by adding 12.5 μg of peptide from the stock solution to a 10 mM solution of DTT in PBS and allowed to incubate at room temperature for 30 minutes. Other reactions were prepared with 12.5 μg peptide and 500 U/ml trypsin in 25 mM Tris/75 mM NaCl buffer (pH 7.0) and incubated for 30 minutes at 37.5° C. These reactions were then quenched with 5 μg of soybean trypsin inhibitor (I) and, in some cases, 10 mM dithiothreitol (DTT). Reversed phase HPLC (RP-HPLC) was run on samples using an Agilent 1260 HPLC equipped with a C-18 Poroshell 120B column. Sample were analyzed by a gradient method with a mobile phase of Solvent A (water with 0.1% TFA) and Solvent B (acetonitrile with 0.1% TFA). Solvent B was ramped up from 5%-45% of the mobile phase over a period of 10 minutes. For testing pepsin digestion resistance, reactions were prepared with 12.5 μg peptide with or without 500 U/ml pepsin in simulated gastric fluid (SGF; pH 1.05; […] sodium chloride in 0.7% (v/v) hydrochloric acid) and were incubated for 30 minutes at 37.5° C. For testing temperature resistance, peptides were incubated at 70° C., 75° C., or 100° C. for one hour in 0.5 mM PBS, pelleted, and then the supernatant was analyzed by HPLC.
This example illustrates peptide stability at high temperatures. Peptides were first suspended in 500 μl of ddH2O to a stock concentration of 2 mg/ml. Reactions were prepared by adding 6.25 μl of peptide from the stock solution with 95 μl ddH2O and incubated at room temperature, 70° C., or 100° C. for one hour in a Thermocycler. RP-HPLC was then run on samples using an Agilent 1260 HPLC equipped with a C-18 Poroshell 120B column. Sample were analyzed by a gradient method with a mobile phase of Solvent A (water with 0.1% TFA) and Solvent B (acetonitrile with 0.1% TFA). Solvent B was ramped up from 5%-45% of the mobile phase over a period of 10 minutes.

[2] = Resistance to reduction by DTT, RP-HPLC; type: physicochemical; settings: 10 mM DTT in PBS, room temperature, 30 minutes; HPLC peak vs untreated peptide
Method: Peptides were first suspended in 500 ul of ddH2O to a stock concentration of 2 mg/ml. Reactions were prepared by adding 12.5 ug of peptide from the stock solution to a 10 mM solution of DTT in PBS and allowed to incubate at room temperature for 30 minutes. Other reactions were prepared with 12.5 μg peptide with or without 500 U/ml pepsin in simulated gastric fluid (SGF; pH 1.05; […] sodium chloride in 0.7% (v/v) hydrochloric acid) and were incubated for 30 minutes at 37.5° C. Some reactions were quenched with a final concentration of 100 mM Tris base and 10 mM dithiothreitol (DTT). Some reactions were performed in all of the above components, including simulated gastric fluid, pepsin, Tris, and DTT (referred to as SPTD). Reversed phase HPLC (RP-HPLC) was run on samples using an Agilent 1260 HPLC equipped with a C-18 Poroshell 120B column. Sample were analyzed by a gradient method with a mobile phase of Solvent A (water with 0.1% TFA) and Solvent B (acetonitrile with 0.1% TFA). Solvent B was ramped up from 5%-45% of the mobile phase over a period of 10 minutes. Peptides were detected at an absorbance of 214 nm and 280 nm.
as §1
This example illustrates peptide stability in biological conditions including in the presence of reducing agents, proteases, oxidative conditions, acidic conditions, and simulated gastric fluids. […] Various peptides were suspended in 500 μl of ddH2O at a stock concentration of 2 mg/ml. This was then diluted in accord with the reaction conditions to prevent adverse buffering effects. Reactions were prepared with 12.5 μg peptide dissolved in solution and, in some samples, additionally suspended in a 10 mM solution of DTT, simulated gastric fluid (pH 1.05; […] sodium chloride in 0.7% (v/v) hydrochloric acid), 500 U pepsin (5000 U/ml pepsin), 50 U trypsin (500 U/ml trypsin) with 1 mg/ml inhibitor in PBS, or a combination of any of these conditions. All protease reactions were incubated for 30 min at room temperature and then quenched. Pepsin reactions were quenched by adding Tris base to a final concentration of 0.075 M. Trypsin reactions were quenched by adding excess soybean trypsin inhibitor. RP-HPLC was then run on samples using an Agilent 1260 HPLC equipped with a C-18 Poroshell 120B column. Sample were analyzed by a gradient method with a mobile phase of Solvent A (water with 0.1% TFA) and Solvent B (acetonitrile with 0.1% TFA). Solvent B was ramped up from 5%-45% of the mobile phase over a period of 10 minutes.
FIG. 18 illustrates high performance liquid chromatograph (HPLC) traces of peptides in non-reducing (NR) conditions (solid trace) or in 10 mM DTT reducing (R) conditions (dashed trace). […]

[3] = biological target: trypsin (Sus scrofa, UniProt P00761); assay: Trypsin digestion resistance of soluble peptide, RP-HPLC; type: in vitro ADME, porcine; design: purchased Sigma Aldrich 6567; settings: 500 U/ml trypsin, 30 minutes at 37.5° C.; HPLC peak vs untreated peptide
Sequence of trypsin (P00761 9-231): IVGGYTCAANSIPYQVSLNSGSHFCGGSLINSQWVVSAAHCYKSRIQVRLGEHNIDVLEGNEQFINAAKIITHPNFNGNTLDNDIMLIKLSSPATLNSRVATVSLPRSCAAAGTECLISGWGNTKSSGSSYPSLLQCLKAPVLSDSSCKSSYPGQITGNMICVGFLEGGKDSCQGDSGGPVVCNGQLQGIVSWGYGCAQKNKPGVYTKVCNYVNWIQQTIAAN
Method in brief: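 Read-out was RP-HPLC (C-18, water/acetonitrile with 0.1% TFA, 5-45% over 10 min) of peptide left after trypsin treatment. Digest: 12.5 μg peptide, 500 U/ml porcine trypsin, PBS, 37.5° C for 30 min, stopped by soybean trypsin inhibitor; samples then reduced (10 mM DTT) or left non-reduced.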

[4] = biological target: pepsin (Sus scrofa, UniProt P00791); assay: Pepsin digestion resistance in simulated gastric fluid, RP-HPLC; type: in vitro ADME, porcine; design: purchased Sigma Aldrich P7012; settings: 500 U/ml pepsin in SGF pH 1.05, 30 minutes at 37.5° C.; HPLC peak vs untreated peptide
Sequence of pepsin (P00791 60-385): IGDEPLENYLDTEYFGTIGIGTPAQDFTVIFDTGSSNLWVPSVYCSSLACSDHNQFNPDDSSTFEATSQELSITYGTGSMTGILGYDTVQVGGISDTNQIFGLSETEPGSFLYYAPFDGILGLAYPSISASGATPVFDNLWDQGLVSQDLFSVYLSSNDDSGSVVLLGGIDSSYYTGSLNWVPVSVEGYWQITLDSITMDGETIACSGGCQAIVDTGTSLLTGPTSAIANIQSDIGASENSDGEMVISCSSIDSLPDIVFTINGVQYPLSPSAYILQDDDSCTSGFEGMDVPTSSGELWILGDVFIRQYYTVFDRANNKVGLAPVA
Method in brief: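 Digestion resistance read by reversed-phase HPLC (C-18, 0.1% TFA, 5–45% acetonitrile over 10 min; 214/280 nm) after 12.5 μg peptide spent 30 min at 37.5 °C in pH 1.05 simulated gastric fluid, with or without 500 U/ml pepsin. Some samples quenched with Tris base and DTT.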

Substance | Resistance to Temperature (75° C.) [1] | Resistance to Temperature (100° C.) [1] | Resistance to DTT Reduction (10 mM) [2] | Resistance to Trypsin (500 U/ml) [3] | Resistance to Pepsin (500 U/ml) [4]
4 (GSGDCLPHLKRCKENNDCCSKKCKRRGANPEKRCR) [compound 4] | High (A peptide classified as high indicates that the majority (at least 75%) of the HPLC peak of the treated peptide is still present as compared to the HPLC peak of the untreated peptide) | Low (A peptide classified as low indicates that the majority (over 75%) of the HPLC peak of the treated peptide disappeared as compared to the HPLC peak of the untreated peptide) | Low (A peptide classified as low indicates that the majority (over 75%) of the HPLC peak of the treated peptide disappeared as compared to the HPLC peak of the untreated peptide) | Low (A peptide classified as low indicates that the majority (over 75%) of the HPLC peak of the treated peptide disappeared as compared to the HPLC peak of the untreated peptide) | High (A peptide classified as high indicates that the majority (at least 75%) of the HPLC peak of the treated peptide is still present as compared to the HPLC peak of the untreated peptide)
7 (GSDRDSCIDKSRCSKYGYYQECQDCCKKAGHNGGTCMFFKCKCA) [compound 7] | High (A peptide classified as high indicates that the majority (at least 75%) of the HPLC peak of the treated peptide is still present as compared to the HPLC peak of the untreated peptide) | High (A peptide classified as high indicates that the majority (at least 75%) of the HPLC peak of the treated peptide is still present as compared to the HPLC peak of the untreated peptide) | Low (A peptide classified as low indicates that the majority (over 75%) of the HPLC peak of the treated peptide disappeared as compared to the HPLC peak of the untreated peptide) | Low (A peptide classified as low indicates that the majority (over 75%) of the HPLC peak of the treated peptide disappeared as compared to the HPLC peak of the untreated peptide) | High (A peptide classified as high indicates that the majority (at least 75%) of the HPLC peak of the treated peptide is still present as compared to the HPLC peak of the untreated peptide)
9 (GSQFCGTNGKPCVNGQCCGALRCVVTYHYADGVCLKMNP) [compound 9] | High (A peptide classified as high indicates that the majority (at least 75%) of the HPLC peak of the treated peptide is still present as compared to the HPLC peak of the untreated peptide) | Low (A peptide classified as low indicates that the majority (over 75%) of the HPLC peak of the treated peptide disappeared as compared to the HPLC peak of the untreated peptide) | Low (A peptide classified as low indicates that the majority (over 75%) of the HPLC peak of the treated peptide disappeared as compared to the HPLC peak of the untreated peptide) | Moderate (A peptide classified as medium indicates that about half (between 25% and 75%) of the HPLC peak of the treated peptide disappeared as compared to the HPLC peak of the untreated peptide) | High (A peptide classified as high indicates that the majority (at least 75%) of the HPLC peak of the treated peptide is still present as compared to the HPLC peak of the untreated peptide)
11 (GSNCAGYMRECKEKLCCSGYVCSSRWKWCVLPAPWRR) [compound 11] | High (A peptide classified as high indicates that the majority (at least 75%) of the HPLC peak of the treated peptide is still present as compared to the HPLC peak of the untreated peptide) | Low (A peptide classified as low indicates that the majority (over 75%) of the HPLC peak of the treated peptide disappeared as compared to the HPLC peak of the untreated peptide) | Low (A peptide classified as low indicates that the majority (over 75%) of the HPLC peak of the treated peptide disappeared as compared to the HPLC peak of the untreated peptide) | High (A peptide classified as high indicates that the majority (at least 75%) of the HPLC peak of the treated peptide is still present as compared to the HPLC peak of the untreated peptide) | High (A peptide classified as high indicates that the majority (at least 75%) of the HPLC peak of the treated peptide is still present as compared to the HPLC peak of the untreated peptide)
13 (GSAEIIRCSGTRECYAPCQKLTGCLNAKCMNKACKCYGCV) [compound 13] | High (A peptide classified as high indicates that the majority (at least 75%) of the HPLC peak of the treated peptide is still present as compared to the HPLC peak of the untreated peptide) | High (A peptide classified as high indicates that the majority (at least 75%) of the HPLC peak of the treated peptide is still present as compared to the HPLC peak of the untreated peptide) | Low (A peptide classified as low indicates that the majority (over 75%) of the HPLC peak of the treated peptide disappeared as compared to the HPLC peak of the untreated peptide) | Low (A peptide classified as low indicates that the majority (over 75%) of the HPLC peak of the treated peptide disappeared as compared to the HPLC peak of the untreated peptide) | High (A peptide classified as high indicates that the majority (at least 75%) of the HPLC peak of the treated peptide is still present as compared to the HPLC peak of the untreated peptide)
